# Assay results: patent publication US7183387 (Genentech, dated 2007)
# T1: human FcγRIIB α subunit extracellular domain-His6-GST fusion (human, UniProt P31994 43-217)
# T1 construct: extracellular domain; also called CD32; not shown: glutathione S transferase (GST)
# T1 sequence: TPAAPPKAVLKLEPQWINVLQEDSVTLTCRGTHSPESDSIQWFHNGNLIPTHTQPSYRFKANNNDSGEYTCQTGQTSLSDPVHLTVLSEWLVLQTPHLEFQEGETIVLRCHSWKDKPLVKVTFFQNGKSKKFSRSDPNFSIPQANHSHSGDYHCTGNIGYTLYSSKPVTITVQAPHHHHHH
# T2: human FcγRIIA-Arg131 α subunit extracellular domain-His6-GST fusion (human, UniProt P12318 34-217)
# T2 construct: extracellular domain; also called FcγRIIA-R131; not shown: glutathione S transferase (GST)
# T2 sequence: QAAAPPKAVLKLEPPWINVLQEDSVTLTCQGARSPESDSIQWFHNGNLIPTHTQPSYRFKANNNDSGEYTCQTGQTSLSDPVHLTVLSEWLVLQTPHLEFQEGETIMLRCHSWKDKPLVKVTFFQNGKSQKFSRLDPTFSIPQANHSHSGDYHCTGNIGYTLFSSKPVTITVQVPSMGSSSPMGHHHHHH
# Legend:
# [1] = biological target: T3, human neonatal Fc receptor (FcRn), biotinylated (human, UniProt P55899 24-297; P61769 21-119, biotinylated (biotin-X-NHS)); assay: FcRn ELISA, pH 6.0;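 further: Streptavidin-captured FcRn plates, IgG variants titrated 2 h at pH 6.0, peroxidase anti-human IgG read at 450 nm, variant over standard concentration at the standard curve mid-point absorbance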
# T3 construct: captured on streptavidin plates
# Description: FcRn Binding ELISA: For measuring FcRn binding activity of IgG variants, ELISA plates were coated with 2 µg/ml streptavidin (Zymed, South San Francisco) in 50 mM carbonate buffer, pH 9.6, at 4° C. overnight and blocked with PBS-0.5% BSA, pH 7.2 at room temperature for one hour. Biotinylated FcRn (prepared using biotin-X-NHS from Research Organics, Cleveland, Ohio and used at 1–2 µg/ml) in PBS-0.5% BSA, 0.05% polysorbate 20, pH 7.2, was added to the plate and incubated for one hour. Two fold serial dilutions of IgG standard (1.6–100 ng/ml) or variants in PBS-0.5% BSA, 0.05% polysorbate 20, pH 6.0, were added to the plate and incubated for two hours. Bound IgG was detected using peroxidase labeled goat F(ab')_2 anti-human IgG F(ab')_2 in the above pH 6.0 buffer (Jackson ImmunoResearch, West Grove, Pa.) followed by 3,3',5,5'-tetramethyl benzidine (Kirgaard & Perry Laboratories) as the substrate. Plates were washed between steps with PBS-0.05% TWEEN 20® at either pH 7.2 or 6.0. Absorbance was read at 450 nm on a Vmax plate reader (Molecular Devices, Menlo Park, Calif.). Titration curves were fit with a four-parameter nonlinear regression curve-fitting program (KaleidaGraph, Synergy software, Reading, Pa.). Concentrations of IgG variants corresponding to the mid-point absorbance of the titration curve of the standard were calculated and then divided by the concentration of the standard corresponding to the mid-point absorbance of the standard titration curve.
# [2] = biological target: T4, human FcγRIA α subunit extracellular domain-His6-GST fusion (human, UniProt P12314 16-292); assay: FcγRI ELISA and THP-1 cells, averaged
# T4 construct: extracellular domain; also called GST-FcγRIA; CD64; not shown: glutathione S transferase (GST)
# T4 sequence (P12314 other isoform, or with tags, fused parts or gaps): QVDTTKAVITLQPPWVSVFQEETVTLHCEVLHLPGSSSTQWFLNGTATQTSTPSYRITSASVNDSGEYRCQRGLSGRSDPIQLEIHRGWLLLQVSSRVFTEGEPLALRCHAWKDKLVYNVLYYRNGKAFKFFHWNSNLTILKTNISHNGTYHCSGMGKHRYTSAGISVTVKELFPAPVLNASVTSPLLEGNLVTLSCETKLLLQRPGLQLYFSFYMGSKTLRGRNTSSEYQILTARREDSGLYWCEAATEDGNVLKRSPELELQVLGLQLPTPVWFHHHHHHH
# [3] = biological target: T1, human FcγRIIB α subunit extracellular …; assay: hexamer ELISA
# [4] = biological target: T2, human FcγRIIA-Arg131 α subunit …; assay: hexamer ELISA
# [5] = biological target: T5, human FcγRIIIA-Phe158 α subunit extracellular domain-His6-GST fusion (human, UniProt P08637 17-208); assay: hexamer ELISA
# T5 construct: extracellular domain; also called FcγRIIIA-F158; CD16; not shown: glutathione S transferase (GST)
# T5 sequence (P08637 other isoform, or with tags, fused parts or gaps): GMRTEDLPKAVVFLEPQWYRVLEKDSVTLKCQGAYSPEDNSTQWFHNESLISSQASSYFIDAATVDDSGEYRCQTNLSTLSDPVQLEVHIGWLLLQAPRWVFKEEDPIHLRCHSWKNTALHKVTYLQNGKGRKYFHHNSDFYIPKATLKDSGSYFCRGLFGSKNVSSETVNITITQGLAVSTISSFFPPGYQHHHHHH
Binder,ratio to native IgG1 [1],ratio to native IgG1 [2],ratio to native IgG1 [3],ratio to native IgG1 [4],ratio to native IgG1 [5]
anti-IgE E27 IgG1 Glu258Ala (antibody) heavy: not shown light: DIQLTQSPSSLSASVGDRVTITCRASKPVDGEGDSYLNWYQQKPGKAPKLLIYAASYLESGVPSRFSGSGSGTDFTLTISSLQPEDFATYYCQQSHEDPYTFGQGTKVEIKRTVAAPSVFIFPPSDEQLKSGTASVVCLLNNFYPREAKVQWKVDNALQSGNSQESVTEQDSKDSTYSLSSTLTLSKADYEKHKVYACEVTHQGLSSPVTKSFNRGEC,1.18 ratio,1.18 ratio,1.65 ratio,1.33 ratio,1.12 ratio
anti-IgE E27 IgG1 Glu272Ala (antibody) heavy: not shown light: DIQLTQSPSSLSASVGDRVTITCRASKPVDGEGDSYLNWYQQKPGKAPKLLIYAASYLESGVPSRFSGSGSGTDFTLTISSLQPEDFATYYCQQSHEDPYTFGQGTKVEIKRTVAAPSVFIFPPSDEQLKSGTASVVCLLNNFYPREAKVQWKVDNALQSGNSQESVTEQDSKDSTYSLSSTLTLSKADYEKHKVYACEVTHQGLSSPVTKSFNRGEC,1.34 ratio,1.05 ratio,1.53 ratio,1.23 ratio,0.8 ratio
"anti-IgE E27 IgG1 Glu269Ala (antibody, also called E269(282)A) heavy: not shown light: DIQLTQSPSSLSASVGDRVTITCRASKPVDGEGDSYLNWYQQKPGKAPKLLIYAASYLESGVPSRFSGSGSGTDFTLTISSLQPEDFATYYCQQSHEDPYTFGQGTKVEIKRTVAAPSVFIFPPSDEQLKSGTASVVCLLNNFYPREAKVQWKVDNALQSGNSQESVTEQDSKDSTYSLSSTLTLSKADYEKHKVYACEVTHQGLSSPVTKSFNRGEC",1.05 ratio,0.61 ratio,0.75 ratio,0.65 ratio,0.45 ratio
"anti-IgE E27 IgG1 His268Ala (antibody, also called H281A (268 in EU numbering); G16 H268A) heavy: not shown light: DIQLTQSPSSLSASVGDRVTITCRASKPVDGEGDSYLNWYQQKPGKAPKLLIYAASYLESGVPSRFSGSGSGTDFTLTISSLQPEDFATYYCQQSHEDPYTFGQGTKVEIKRTVAAPSVFIFPPSDEQLKSGTASVVCLLNNFYPREAKVQWKVDNALQSGNSQESVTEQDSKDSTYSLSSTLTLSKADYEKHKVYACEVTHQGLSSPVTKSFNRGEC",1.02 ratio,1.09 ratio,1.44 ratio,1.21 ratio,0.54 ratio
"anti-IgE E27 IgG1 Glu333Ala (antibody, also called G54 E333A) heavy: not shown light: DIQLTQSPSSLSASVGDRVTITCRASKPVDGEGDSYLNWYQQKPGKAPKLLIYAASYLESGVPSRFSGSGSGTDFTLTISSLQPEDFATYYCQQSHEDPYTFGQGTKVEIKRTVAAPSVFIFPPSDEQLKSGTASVVCLLNNFYPREAKVQWKVDNALQSGNSQESVTEQDSKDSTYSLSSTLTLSKADYEKHKVYACEVTHQGLSSPVTKSFNRGEC",1.03 ratio,0.98 ratio,0.76 ratio,0.92 ratio,1.27 ratio
anti-IgE E27 IgG1 Glu430Ala (antibody) heavy: not shown light: DIQLTQSPSSLSASVGDRVTITCRASKPVDGEGDSYLNWYQQKPGKAPKLLIYAASYLESGVPSRFSGSGSGTDFTLTISSLQPEDFATYYCQQSHEDPYTFGQGTKVEIKRTVAAPSVFIFPPSDEQLKSGTASVVCLLNNFYPREAKVQWKVDNALQSGNSQESVTEQDSKDSTYSLSSTLTLSKADYEKHKVYACEVTHQGLSSPVTKSFNRGEC,0.93 ratio,1.05 ratio,1.28 ratio,1.24 ratio,1.2 ratio
anti-IgE E27 IgG1 Glu382Ala (antibody) heavy: not shown light: DIQLTQSPSSLSASVGDRVTITCRASKPVDGEGDSYLNWYQQKPGKAPKLLIYAASYLESGVPSRFSGSGSGTDFTLTISSLQPEDFATYYCQQSHEDPYTFGQGTKVEIKRTVAAPSVFIFPPSDEQLKSGTASVVCLLNNFYPREAKVQWKVDNALQSGNSQESVTEQDSKDSTYSLSSTLTLSKADYEKHKVYACEVTHQGLSSPVTKSFNRGEC,1.51 ratio,1.06 ratio,0.84 ratio,0.95 ratio,0.76 ratio
anti-IgE E27 IgG1 His285Ala (antibody) heavy: not shown light: DIQLTQSPSSLSASVGDRVTITCRASKPVDGEGDSYLNWYQQKPGKAPKLLIYAASYLESGVPSRFSGSGSGTDFTLTISSLQPEDFATYYCQQSHEDPYTFGQGTKVEIKRTVAAPSVFIFPPSDEQLKSGTASVVCLLNNFYPREAKVQWKVDNALQSGNSQESVTEQDSKDSTYSLSSTLTLSKADYEKHKVYACEVTHQGLSSPVTKSFNRGEC,0.85 ratio,0.96 ratio,1.23 ratio,1.26 ratio,0.87 ratio
anti-IgE E27 IgG1 His433Ala (antibody) heavy: not shown light: DIQLTQSPSSLSASVGDRVTITCRASKPVDGEGDSYLNWYQQKPGKAPKLLIYAASYLESGVPSRFSGSGSGTDFTLTISSLQPEDFATYYCQQSHEDPYTFGQGTKVEIKRTVAAPSVFIFPPSDEQLKSGTASVVCLLNNFYPREAKVQWKVDNALQSGNSQESVTEQDSKDSTYSLSSTLTLSKADYEKHKVYACEVTHQGLSSPVTKSFNRGEC,0.41 ratio,0.98 ratio,0.79 ratio,0.92 ratio,1.02 ratio

# The next lines start with the values.
ratio to native IgG1 [1],ratio to native IgG1 [2],ratio to native IgG1 [3],ratio to native IgG1 [4],ratio to native IgG1 [5],Binder
0.1 ratio,0.96 ratio,1.18 ratio,1.14 ratio,1.08 ratio,anti-IgE E27 IgG1 Ile253Ala (antibody) heavy: not shown light: DIQLTQSPSSLSASVGDRVTITCRASKPVDGEGDSYLNWYQQKPGKAPKLLIYAASYLESGVPSRFSGSGSGTDFTLTISSLQPEDFATYYCQQSHEDPYTFGQGTKVEIKRTVAAPSVFIFPPSDEQLKSGTASVVCLLNNFYPREAKVQWKVDNALQSGNSQESVTEQDSKDSTYSLSSTLTLSKADYEKHKVYACEVTHQGLSSPVTKSFNRGEC
0.38 ratio,0.88 ratio,1.14 ratio,1.15 ratio,1.06 ratio,anti-IgE E27 IgG1 Lys288Ala (antibody) heavy: not shown light: DIQLTQSPSSLSASVGDRVTITCRASKPVDGEGDSYLNWYQQKPGKAPKLLIYAASYLESGVPSRFSGSGSGTDFTLTISSLQPEDFATYYCQQSHEDPYTFGQGTKVEIKRTVAAPSVFIFPPSDEQLKSGTASVVCLLNNFYPREAKVQWKVDNALQSGNSQESVTEQDSKDSTYSLSSTLTLSKADYEKHKVYACEVTHQGLSSPVTKSFNRGEC
0.63 ratio,0.93 ratio,1.26 ratio,1.13 ratio,1.07 ratio,anti-IgE E27 IgG1 Leu309Ala (antibody) heavy: not shown light: DIQLTQSPSSLSASVGDRVTITCRASKPVDGEGDSYLNWYQQKPGKAPKLLIYAASYLESGVPSRFSGSGSGTDFTLTISSLQPEDFATYYCQQSHEDPYTFGQGTKVEIKRTVAAPSVFIFPPSDEQLKSGTASVVCLLNNFYPREAKVQWKVDNALQSGNSQESVTEQDSKDSTYSLSSTLTLSKADYEKHKVYACEVTHQGLSSPVTKSFNRGEC
1.44 ratio,0.92 ratio,1.18 ratio,1.13 ratio,1.1 ratio,"anti-IgE E27 IgG1 Lys317Ala (antibody, also called Lys317A1a) heavy: not shown light: DIQLTQSPSSLSASVGDRVTITCRASKPVDGEGDSYLNWYQQKPGKAPKLLIYAASYLESGVPSRFSGSGSGTDFTLTISSLQPEDFATYYCQQSHEDPYTFGQGTKVEIKRTVAAPSVFIFPPSDEQLKSGTASVVCLLNNFYPREAKVQWKVDNALQSGNSQESVTEQDSKDSTYSLSSTLTLSKADYEKHKVYACEVTHQGLSSPVTKSFNRGEC"
0.79 ratio,1.01 ratio,1.38 ratio,1.3 ratio,1.31 ratio,"anti-IgE E27 IgG1 Lys290Ala (antibody, also called K290(307)A) heavy: not shown light: DIQLTQSPSSLSASVGDRVTITCRASKPVDGEGDSYLNWYQQKPGKAPKLLIYAASYLESGVPSRFSGSGSGTDFTLTISSLQPEDFATYYCQQSHEDPYTFGQGTKVEIKRTVAAPSVFIFPPSDEQLKSGTASVVCLLNNFYPREAKVQWKVDNALQSGNSQESVTEQDSKDSTYSLSSTLTLSKADYEKHKVYACEVTHQGLSSPVTKSFNRGEC"
1.03 ratio,1.03 ratio,1.41 ratio,1.23 ratio,1.23 ratio,anti-IgE E27 IgG1 Lys326Ala (antibody) heavy: not shown light: DIQLTQSPSSLSASVGDRVTITCRASKPVDGEGDSYLNWYQQKPGKAPKLLIYAASYLESGVPSRFSGSGSGTDFTLTISSLQPEDFATYYCQQSHEDPYTFGQGTKVEIKRTVAAPSVFIFPPSDEQLKSGTASVVCLLNNFYPREAKVQWKVDNALQSGNSQESVTEQDSKDSTYSLSSTLTLSKADYEKHKVYACEVTHQGLSSPVTKSFNRGEC
